Results reported in the supplement of paper PMC10724198.
± gives the standard deviation of the averaged measurements.

Tested on: Saccharomyces cerevisiae
Assay: protein stability index of tFT-peptide fusion (C-terminal peptide) (PSI (0-1 scale)); higher = more stable (slower turnover)
Conditions: temperature: 30 C
Procedure: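 MPS profiling in S. cerevisiae of the yeast C-terminome library: the last 12 aa of each annotated ORF are fused to the C-terminus of a sfGFP-mCherry timer, after a GGGS linker. Cells are FACS-sorted into 8 mCherry/sfGFP bins and deep-sequenced. PSI runs from 0 (unstable) to 1 (stable); wild type and das1Δ backgrounds, two technical replicates each.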

[1] = genetic background: das1 deletion

Sequence	protein stability index [1]	protein stability index (genetic background: wild type)
SGKRGVGKTDFR [NOG1 C-terminal 12 aa]	0.716 ± 0.00084	0.6901 ± 0.00098
SGPVEELVSPSK [IRC8 C-terminal 12 aa]	0.7034 ± 0.0033	0.685 ± 0.032
SHEQKFENVQKE [STF2 C-terminal 12 aa]	0.711 ± 0.017	0.705 ± 0.012
SISVLFDSLAAL [PRS1 C-terminal 12 aa]	0.714 ± 0.0093	0.736 ± 0.022
SKADSYRSVIRH [DLT1 C-terminal 12 aa]	0.667 ± 0.037	0.675 ± 0.023
SKFGSIFKKVFG [YGR237C C-terminal 12 aa]	0.689 ± 0.017	0.775 ± 0.077
SKKVICNTFGYN [DDI2 C-terminal 12 aa]	0.689 ± 0.027	0.733 ± 0.1
SKMLKNKIPLKN [YGL138C C-terminal 12 aa]	0.667 ± 0.0083	0.685 ± 0.039
SKREFIESLRPK [SKG1 C-terminal 12 aa]	0.707 ± 0.029	0.679 ± 0.03
SLCKNTIISSSV [YAL063C-A C-terminal 12 aa]	0.693 ± 0.023	0.703 ± 0.035
SLDDFGVDVDME [PFA4 C-terminal 12 aa]	0.711 ± 0.016	0.683 ± 0.016
SLDQEIQSLLSK [GPX2 C-terminal 12 aa]	0.6903 ± 0.0018	0.654 ± 0.028
SLFPRDPKRLRP [DPS1 C-terminal 12 aa]	0.7133 ± 0.0054	0.6987 ± 0.0031
SLIKQVGVKLDR [JHD2 C-terminal 12 aa]	0.671 ± 0.025	0.67 ± 0.013
SLPLVSLFIVLA [YJL064W C-terminal 12 aa]	0.267 ± 0.019	0.268 ± 0.0062
SLYTLNYNVKNP [ATG17 C-terminal 12 aa]	0.7157 ± 0.0035	0.6907 ± 0.00092
SMHAFLCKIYKR [YCR095W-A C-terminal 12 aa]	0.701 ± 0.02	0.6761 ± 0.0035
SMPLYKDVQKDA [RBK1 C-terminal 12 aa]	0.717 ± 0.027	0.665 ± 0.015
SMTTTNFSDFSL [UPC2 C-terminal 12 aa]	0.6932 ± 0.0047	0.688 ± 0.036
SNDDFRKMFLGE [PRP24 C-terminal 12 aa]	0.725 ± 0.011	0.708 ± 0.01
SNSNQHFGNVTF [IME2 C-terminal 12 aa]	0.713 ± 0.0014	0.6829 ± 0.0059

Sequence	protein stability index [1]	protein stability index (genetic background: wild type)
SPAHSFEKIQKI [ERF2 C-terminal 12 aa]	0.692 ± 0.015	0.688 ± 0.029
SPYDWFRNTETP [DER1 C-terminal 12 aa]	0.726 ± 0.035	0.737 ± 0.0089
SQVLPESERRLD [ATG22 C-terminal 12 aa]	0.675 ± 0.013	0.676 ± 0.03
SRIQNASASGEI [TIM13 C-terminal 12 aa]	0.685 ± 0.015	0.715 ± 0.015
SRSNSHRTFFKR [FPK1 C-terminal 12 aa]	0.737 ± 0.053	0.714 ± 0.043
SSLSFLSSFVDI [VAM10 C-terminal 12 aa]	0.708 ± 0.025	0.702 ± 0.048
SSSGTSSSHLEL [APL6 C-terminal 12 aa]	0.702 ± 0.0062	0.672 ± 0.028
SSSLSLESFMKS [SNM1 C-terminal 12 aa]	0.748 ± 0.036	0.725 ± 0.019
SSTVESTNINME [MRT4 C-terminal 12 aa]	0.6903 ± 0.0023	0.721 ± 0.00096
SSVAFSKNLECV [YGR139W C-terminal 12 aa]	0.7073 ± 0.0066	0.696 ± 0.038
SSYFRIEGKKKK [CUE2 C-terminal 12 aa]	0.68 ± 0.022	0.683 ± 0.024
STSDFELDDLED [YPL264C C-terminal 12 aa]	0.6965 ± 0.0052	0.729 ± 0.026
STTKQQSQEAVA [YHL026C C-terminal 12 aa]	0.704 ± 0.027	0.689 ± 0.054
SVEEAFQLKSFD [LAA1 C-terminal 12 aa]	0.713 ± 0.0014	0.715 ± 0.056
SVFCRNYPSFLL [YMR086C-A C-terminal 12 aa]	0.697 ± 0.011	0.7 ± 0.035
SVLQRRQSTQNS [HAL1 C-terminal 12 aa]	0.719 ± 0.0076	0.691 ± 0.06
SVSVQVKWLYSA [YER107W-A C-terminal 12 aa]	0.657 ± 0.012	0.159 ± 0.017
SVTSGSANFVFY [UTH1 C-terminal 12 aa]	0.7081 ± 0.0034	0.7 ± 0.019
SYKWLKRETSPL [FRA1 C-terminal 12 aa]	0.712 ± 0.024	0.689 ± 0.022
TAIVAVVALLLL [DAN4 C-terminal 12 aa]	0.343 ± 0.0084	0.353 ± 0.0092
TAPLIQRKNKKN [RPN8 C-terminal 12 aa]	0.741 ± 0.037	0.355 ± 0.022

Sequence	protein stability index [1]	protein stability index (genetic background: wild type)
TASGEDSHLLKQ [BRL1 C-terminal 12 aa]	0.669 ± 0.029	0.689 ± 0.026
TCISVFLEVHQV [YDL206W C-terminal 12 aa]	0.479 ± 0.017	0.4633 ± 0.0046
TDIENRNFRYIY [THI73 C-terminal 12 aa]	0.6944 ± 0.0043	0.702 ± 0.022
TDIEPSAKRQKK [RPF2 C-terminal 12 aa]	0.776 ± 0.048	0.695 ± 0.087
TDNGSVLPLNPS [BAS1 C-terminal 12 aa]	0.696 ± 0.015	0.697 ± 0.028
TDTEAEDDESPE [SEC63 C-terminal 12 aa]	0.692 ± 0.025	0.633 ± 0.013
TDYTRIIKMQSS [SWD1 C-terminal 12 aa]	0.701 ± 0.013	0.251 ± 0.0049
TFCRLCSHIQYF [YAL059C-A C-terminal 12 aa]	0.7214 ± 0.006	0.694 ± 0.022
TFKGLYAEANSI [YOR111W C-terminal 12 aa]	0.739 ± 0.01	0.716 ± 0.031
TFKPIYLWALDL [SPP382 C-terminal 12 aa]	0.6938 ± 0.0043	0.6753 ± 0.0057
TGLLRGSQKTQD [RPL2A C-terminal 12 aa]	0.7017 ± 0.0061	0.672 ± 0.0086
TISPYIRVCVST [YPR099C C-terminal 12 aa]	0.3891 ± 0.0037	0.424 ± 0.018
TKCEEEIKNLSK [YME2 C-terminal 12 aa]	0.698 ± 0.022	0.711 ± 0.036
TKGGNAGTKAYN [RTC3 C-terminal 12 aa]	0.679 ± 0.011	0.666 ± 0.041
TKWWLHYYRKLR [SBE2 C-terminal 12 aa]	0.7418 ± 0.005	0.701 ± 0.023
TLSMYPRRRFYH [GPG1 C-terminal 12 aa]	0.709 ± 0.011	0.608 ± 0.043
TPEDADEEEDDE [RPL22B C-terminal 12 aa]	0.6921 ± 0.0011	0.655 ± 0.014
TPLLLGNKGKPQ [YBL094C C-terminal 12 aa]	0.687 ± 0.019	0.696 ± 0.043
TQEKLDSLLLMQ [LGE1 C-terminal 12 aa]	0.702 ± 0.011	0.6982 ± 0.006
